For the series the following is noted: Escherichia coli; pH 6; 25 °C; Thermal; DSC; Sodium phosphate/Sodium sulfate 10 mM/10 mM/; reversible: yes; whole UniProt chain shown.

Results on one protein are retold here after FireProtDB (doi:10.1002/prot.340230110).

B1: Regulatory protein rop wild type, P03051 (protein)
chain: MTKQEKTALNMARFIRSQTLTLLEKLNELDADEQADICESLHDHADELYRSCLARFGDDGENL
Take B1: the “heat capacity change of unfolding” value was 2.46 kcal/mol/K and the unfolding free energy amounted to 17.1 kcal/mol.
